Blank lines part the entries; values can stand above or below the substance they belong to.
Experiments:
[1] = target: emerin (Homo sapiens) (UniProt P50402); conditions: cited from earlier work
[2] = target: F-actin (Oryctolagus cuniculus) (UniProt P68135); conditions: cited from earlier work
[3] = target: rabbit actin (Cytoskeleton, catalog #AKL95) (rabbit) (UniProt P68135)
[4] = target: rabbit actin (Cytoskeleton, catalog #AKL95) (rabbit) (UniProt P68135); remark: listed apart in the source

Sequence of tropomodulin (P28289 whole entry): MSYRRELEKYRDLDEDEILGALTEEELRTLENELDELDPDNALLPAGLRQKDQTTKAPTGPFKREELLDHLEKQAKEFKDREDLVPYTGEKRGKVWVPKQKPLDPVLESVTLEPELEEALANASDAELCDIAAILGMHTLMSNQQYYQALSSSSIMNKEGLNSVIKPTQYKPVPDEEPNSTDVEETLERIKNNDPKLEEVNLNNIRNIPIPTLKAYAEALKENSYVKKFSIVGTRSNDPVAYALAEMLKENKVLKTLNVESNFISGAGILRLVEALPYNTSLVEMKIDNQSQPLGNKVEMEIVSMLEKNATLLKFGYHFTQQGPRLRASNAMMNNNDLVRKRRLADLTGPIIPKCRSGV
Sequence of LAP2β (P42167 whole entry): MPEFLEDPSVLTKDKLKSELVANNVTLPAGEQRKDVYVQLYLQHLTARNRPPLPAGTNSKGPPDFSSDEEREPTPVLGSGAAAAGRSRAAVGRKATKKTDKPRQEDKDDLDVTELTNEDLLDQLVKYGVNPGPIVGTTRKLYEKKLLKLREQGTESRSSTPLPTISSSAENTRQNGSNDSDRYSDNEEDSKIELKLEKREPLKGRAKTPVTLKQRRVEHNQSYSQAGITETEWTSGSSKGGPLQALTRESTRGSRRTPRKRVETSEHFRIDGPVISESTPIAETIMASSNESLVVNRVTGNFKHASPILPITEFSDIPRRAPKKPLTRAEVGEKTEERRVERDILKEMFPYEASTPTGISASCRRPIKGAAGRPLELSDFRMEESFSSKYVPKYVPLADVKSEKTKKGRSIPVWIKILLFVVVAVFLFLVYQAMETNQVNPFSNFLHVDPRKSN
Sequence of emerin (Homo sapiens) (P50402 whole entry): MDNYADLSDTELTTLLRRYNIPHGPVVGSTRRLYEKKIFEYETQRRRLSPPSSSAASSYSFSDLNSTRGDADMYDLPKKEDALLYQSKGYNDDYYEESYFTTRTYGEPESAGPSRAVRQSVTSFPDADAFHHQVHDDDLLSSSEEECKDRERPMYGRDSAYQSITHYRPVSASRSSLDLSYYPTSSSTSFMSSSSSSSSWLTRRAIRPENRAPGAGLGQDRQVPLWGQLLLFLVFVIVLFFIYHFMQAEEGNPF

Substance: nesprin-1α (from UniProt Q8NF91)
Kd [1]: 4 nM

Substance: tropomodulin (from UniProt P28289)
Kd [2]: 110 nM

length of green (pointed-end growth) segments on rhodamine–phalloidin filaments capped with capping protein, 1 μM tropomodulin [3]: 0.09 μm
length of growing (green) segments on filaments formed from gelsolin–actin seeds, 1 μM tropomodulin [3]: 0.1 μm
Substance: tropomodulin (from UniProt P28289 1-359) (natural protein)

actin polymerization assays (data not shown), activity against emerin (fold less active than emerin) [4]: 20
Substance: LAP2β (from UniProt P42167 1-454) (natural protein)
